Experimental data taken from the domain aggregation screens of Martell et al. (2025).

Test: soluble fraction after stress (log2 fold change); higher = more stays soluble; pooled small domains, quantitative proteomics
Conditions: stress: pH 4
Procedure, shortened: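 How much of each domain stays soluble after acid stress, expressed as a fold change, is used to gauge aggregation propensity. Pooled custom libraries of small domains underwent pH 4 stress before high-throughput quantitative proteomics. A higher log2 value means more of the domain stayed soluble.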

Sequence | soluble fraction (log2)
HMGPTPTSAQLTEAKRLRTKLDDLNPELAERLWSEHREPYTETQYQTLIEKLAAEVQSAEGEIGR | 0.351
HMFTLDDLQATYDIFERAEQNSDAMLAFQKVITAEGLDFDLTSPQGIVDFFKGAAPTEIYDLYEAS | -0.956
HMNKAYLTVADMKKDKSLKNGDVVRTLGYYGYNDGDGAVYQIKDSHPEDYHIRLDNGLDAEQINY | 0.174
HMSAQDLIVRRDSARIEARVTEISPTEIRYKRASNPDGPTYVLPLGDVRSIRYANGEEEVFAPA | -0.0969
HMNMVSGHLQVKKGYYYAVLSFYDSKNKRHVKYISTGLPEKGNKRKAEAELVKIRNAFEPPAE | -0.0995
HMVTIEEMMDRLLTRVQRAVNMSFSEFSGEAKEKVEVIVSFLALLELVKQGAVDVLQHENFSDIRIENT | -0.841
HMFEDEYLETMYAFYETDPQALVRTGDLASSLKVSPASATEMVQRLASKGFVDYIPYKGASLTELGLAM | -0.438
HMKKAENEKLNIPYDVTEFLASSIKDDIRMMEGAMVKLLALSSLTKQDITQSLAKRVIQDVLGSSA | -0.451
HMKTLPADPTVKNFSYTVVDGEIYYRENSIMTQIELSDNAKGRVAGMVELRQIVNELIDQQLND | -1.52
HMDALKAVYQWVTRTMMKNQTGVMQTLPNRDLIELNTQITAQRLMQAGVDPTTLKNANQVENAVNIIESR | -0.193
HMIPEILNGYTKWGDDEPFEDHAGPFYMKMMPSTGRHLSAFIPEQRHMNGGGFLHGGMLMSFADYALFVI | -0.491
HMTSESWAEKSRSLAAAGLIVMGRDAQLKIEGLTNLDPLIEAATASSTRLLTGQTIDELLTIVP | -0.627
HMPKKLIWERTTSKLQLYITQDRYELKTPLMTIPFTSKSKMMVYLQQRYHLDMQEYRQIYDAG | 0.0815
HMEIPTEEILKQKLYYSISEVASWFKVNTSLLRYWENEFDILQPRKTRKGDRLFRVEDIKNLQLIYLL | -0.122
HMTNPPITTEARNLVVEQLKELNALHPEKARELADSYKKEFNVPKVIGHITEARHGEFLALAISKIDES | -0.399
HMVGADTISDLISQRGRMIGDKPITNAVIKSGSEFSTINALSKAIASGDARTNDVEGMKPVFR | -0.0241

Sequence | soluble fraction (log2)
HMVSAMLLHKKEILNLLAEEPEALHFASLLRAFGGRHIKNELKQIVDDLVRSGEILRLRGNRYTLPGADN | -0.149
HMYRSGGYTGAGKDDEEAGVVHRNEFVNTADAVRNPHVKRFLDVFNVAQKDGTIRMLNTSQILERARLDA | 0.0596
HMNDRLFQILYLLLEKGTMTAPELSRALEVSVRTIYRDIDALSLAGVPVYATQGKNGGVSLLPNY | -0.758
HMAVSDPTAGGIKALMYPNPAQDRLSVALDIPAGLDKQAQMTVTDMMGRVVTQQQVTLNDGFQVFEL | 0.209
HMGGKAITGGEGEIIIRADKAETVAIYGIDGRLVHRVSTEAGDTKRVSVPAGIYIVKGAKVVV | 0.42
HMEAEQLEAIRSALQQLSDMNRTVFNLHVVDGYKHEEIAAMLNITTGTSKAHLHRAKKRLRELID | -0.745
HMKNEVENLSYMINRIIEYRDLNNLSNKNLANKIGISEALLSYILNGRRKLSKEIQRKIALFLLND | -0.337
HMERPKSLRELALEHLRNSIIDGSLKMGQVLSERKISEELGVSKSPVREALAQLRDEGLVSIEPQKGARV | 0.288
HMSEEVKSQPISILDLSTRASNGLKNEGIETIGELVKYSEDELLGLDKFGQNSLKEIKKKLEEIGLTLKEH | -0.0527
HMGKSKAAQSSLVRSIMHQISDKNRGPMPLSEIIDRASIQSIDEAIVRSLVSRMKEQGEIYEPSLGTYEF | -0.163
HMTDDFAGRFNELLIHNQETAVTAATRLEVSPAVITKWRQGKSIPSGEYIKRIVETYHVSADYLLGVIDTP | -0.0517
HMEYELYALKEEVLKRLTREDRELLILLFEERRTIHAVAQRLGLSDSAVYKRRTQLVNKVKVIASMLM | -0.592
HMQNFLSITSKEKIDIGNFQLISFKFENNLYDYVISGNKSELLIFQEKTIENNNENIEKITSNF | -0.847
HMDSRQIIAALQARYADETGITALKIKFNNVLGYFVDVPARYGDPLMKPPLSETFIHRQTLASNVRF | -0.0558
HMALPQPDDDRQDTKKRILDMAEDLLLTRGFNAFSYQHISSELGMKNAAIHYHYPKKNDLGVAVIQRYRRR | -0.178
